{
  "source": "paper PMC12025393",
  "about": "“Neuregulin-1 (NRG1) Binds to the Allosteric Binding Site (Site 2) and Suppresses Allosteric Integrin Activation by Inflammatory Cytokines: A Potential Mechanism of Anti-Inflammatory and Anti-Fibrosis Action of NRG1” (Cells, 2025)",
  "binders": {"B1": {"name": "β3 specificity-determining loop (SDL) peptide fused to GST (peptide)", "chain": "DKPVSPYMYISPPEALENPCYDMKTTCLPMF", "modifications": "not fully specified (N-terminus); cysteine pairing not given here; also: fused to GST", "notes": "cDNA fragment subcloned into the BamHI/EcoRI site of pGEX2T; also called β3 SDL peptide; β3-SDL peptide; source: E. coli BL21, purified (Glutathione Sepharose)"}},
  "molecular_target": "T1, WT NRG1 EGF-like domain",
  "T1 construct": "also called NRG1 EGF domain; neuregulin-1; source: endotoxin-free E. coli BL21 (DE3) pLysS Clear-coli, purified (Ni-NTA in 8M urea, re-folded)",
  "T1 chain": "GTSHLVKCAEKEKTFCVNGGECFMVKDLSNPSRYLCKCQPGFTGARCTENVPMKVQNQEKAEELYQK",
  "assay": "ELISA; NRG1 (20 μg/mL in PBS) immobilised to wells, blocked with 0.1% BSA; peptides fused to GST in PBS/Tween20 (0.05%), 1 h at room temperature; HRP-conjugated anti-GST antibody; signals with scrambled β3 site 2 peptide subtracted",
  "settings": "both partners purified",
  "note": "No end group written: not given here.",
  "data": [
    {"binder": "B1", "values": [
      {"measurement": "binding result", "value": "binds"}
    ]}
  ]
}
